Legend:
[1] = biological target: Hcp from Acinetobacter baumannii AB0057, C-terminal His-tagged (Acinetobacter baumannii strain AB0057); assay: crystal structure; X-ray, 1.55 Å, space group P6; crystals from 2.0 M ammonium sulfate, 0.1 M Hepes pH 7.5, 4°C; hexamer made by the 6-fold crystallographic symmetry; interfaces analysed with PISA
[2] = biological target: Hcp from Acinetobacter baumannii AB0057, tag-free (Acinetobacter baumannii strain AB0057); assay: AUC; sedimentation equilibrium, 20°C, Hcp at 1.0 and 2.5 mg/ml, 20 mM Tris-HCl pH 7.5, 200 mM NaCl, 0.2 mM DTT, 2% glycerol
[3] = biological target: Hcp from Acinetobacter baumannii AB0057, tag-free (Acinetobacter baumannii strain AB0057); assay: negative-staining electron microscopy; Hcp at 0.02 mg/ml in 20 mM Tris-HCl pH 7.5, 200 mM NaCl, 2 mM DTT, stained with 1% uranyl formate; reference-free 2D classification

Substance	stoichiometry N [1]	stoichiometry N [2]	stoichiometry N [3]
Hcp from Acinetobacter baumannii AB0057, C-terminal His-tagged (natural protein)	6	–	–
Hcp from Acinetobacter baumannii AB0057, tag-free (natural protein)	–	6	6
